We go through 23 molecules from patent publication US20240409645A1.

T1: mouse IL-2Rα (mouse) (UniProt P01590)
T1 sequence (looked up): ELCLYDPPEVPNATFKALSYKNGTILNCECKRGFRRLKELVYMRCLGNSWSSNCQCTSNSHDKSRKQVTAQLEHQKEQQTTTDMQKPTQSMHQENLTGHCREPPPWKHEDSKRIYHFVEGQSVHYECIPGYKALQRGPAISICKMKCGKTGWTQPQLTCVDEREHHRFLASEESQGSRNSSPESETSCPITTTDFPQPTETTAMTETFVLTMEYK

B1: FJ1427_P035MP01H07 (VHH)
VHH: EVQLVESGGGLVQAGGSLRLSCAASGRTLSGYAMAWFRQPPDKGREFVTAISSSGIVTHVLDSVKGRFTISRDNAKNTVYLQMNSLQPEDTALYFCAATASSYSDYEANYNYWGQGTLVTVSS
B2: FJ1427_P035MP01D04 (VHH)
VHH: QVQLVESGGGWVQPGDSLRLSCAASGRSFRNYVMGWFRQVPGKEREFLSVITWLGGTLDADSVADRFTISRDNSKNTVYLQMDSLKPEDTAVYYCAADRGPARYISASDVDYWGQGTQVTVSS
B3: FJ1427_P035MP01F08 (VHH)
VHH: B2 VHH with Q1E, W53S
B4: FJ1427_P035MP01D08 (VHH)
VHH: EVQLVESGGGLVQAGGSLRLSCAASGGTFRTRNMGWFRRAPGKEREFVAAVSWNVDNKLYAGSVKGRFTISRDNGRNMVYLQMNSLKPEDTAVYYCAADNIPLSSDMRPTATEYDYWGQGTQVTVSS
B5: FJ1427_P035MP01G03 (VHH)
VHH: QVQLVESGGGLVQAGDSLRLSCAASGRSFRNYILAWYRQAPGKEREFLAAISWLDGTLYADSVEDRFTISRDNPKNTVHLQMDNLKPEDTAVYYCAADQGPVRPVLAPDVDYWGQGTQVTVSS
B6: FJ1427_P035MP01E07 (VHH)
VHH: B5 VHH with V5Q, D55E, N84S, Q99R
B7: FJ1427_P035MP01E10 (VHH)
VHH: B5 VHH with N84S, Q99R
B8: FJ1427_P035MP01B12 (VHH)
VHH: B5 VHH with V5Q, L58F, D61N, D65G, N84G, Q99R, S122A
B9: FJ1427_P035MP01G07 (VHH)
VHH: B5 VHH with A14T, D65G, N84S, Q99R
B10: FJ1427_P035MP01F11 (VHH)
VHH: B5 VHH with V5Q, N84S, Q99R
B11: FJ1427_P035MP01D11 (VHH)
VHH: B5 VHH with V2L, L34M, N84S, Q99R
B12: FJ1427_P035MP01E04 (VHH)
VHH: B5 VHH with A24V, L58F, D61N, D65G, N84G, Q99R, S122A
B13: FJ1427_P035MP01H10 (VHH)
VHH: QVQLVESGGGLVETGGSLRLSCAASGITFNDHTMAWFRQAPGKEREFVAARDWSDIITRYASSVKGRFTISRDNAGNTGFLQMNSLRPEDTAVYYCAAREGGVVAGVRSGAPYDYWGQGTQVTVSS
B14: FJ1427_P035MP01F06 (VHH)
VHH: QLQLVESGGGLVQAGGSLRLSCAASGGAFSRYAVGWFRMAPGKGREFVSAIDLSGTNTHVLDSVKGRFTISRDNDKNTAYLQMDKLQPEDTAVYWCAATSSSYSDYEANYNIWGQGTQVTVSS
B15: FJ1427_P035MP01G10 (VHH)
VHH: B14 VHH with Q1E, L2V
B16: FJ1427_P035MP01A11 (VHH)
VHH: QVQLVESGGGLVQPGGSLRLSCAASGRTFETHNMGWFRRAPGKEREFVAVISWNVDSTEYTDSVKGRFTISRDNDKNMVYLQMNSLKPEDTGVYYCAADNIPLSSDMSPTAAEYGYWGQGTQVTVSS
B17: FJ1427_P035MP01H08 (VHH)
VHH: EVQLVESGGRLVQSGGSLRLSCAASGRAFSTHNMGWFRRAPGKEREFVAAISWNVDNKLYANSVKGRFAISRDNGRNMVYLQMNSLKPEDTAVYYCAADNIPLSSDMRATATEYDVWGQGTQVTVSS
B18: FJ1427_P035MP01E05 (VHH)
VHH: QVQLVESGGGLVQAGGSLRLSCAASGRTFRTHNMGWFRRAPGEEREFVAVISWNVDNKLYADSVKGRFTISRDNGRNMVYLQMNSLKPEDTAVYYCAADNIPLSSDVRATATEFGYWGQGTQVTVSS
B19: FJ1427_P035MP01H11 (VHH)
VHH: B18 VHH with E43K, V50A, K58T, G75D, Y95F, Q122R
B20: FJ1427_P035MP01G04 (VHH)
VHH: QVQLVESGGGLVQPGGSLRLSCAASGFTFSNNFMSWVRQAPGKGLEWVSTISYFGDSTRYAESVKGRFTISRDNEKNTLHLQMNNLKPEDTAVYYCAKATSYDSIRSGSRGRGTQVTVSS
B21: FJ1427_P035MP01H05 (VHH)
VHH: B20 VHH with Q1E, R59T, E75A, H80Y
B22: FJ1427_P035MP01D09 (VHH)
VHH: B20 VHH with F54G, D56E, R59T, E75A, H80Y, R112Q
B23: FJ1427_P035MP01E11 (VHH)
VHH: B20 VHH with H80Y

Positions count from the first letter of the chain named.

The assay deals with T1, mouse IL-2Rα (mouse). Briefly: ELISA, P.E. on coated antigen.
In turn, B1 came in with an OD (PE binding ELISA) of 0.049 OD450 nm. In turn, B2 had an OD (PE binding ELISA) of 0.045 OD450 nm.

In turn, B3 registered an OD (PE binding ELISA) of 0.046 OD450 nm. Molecule B4 registered an OD (PE binding ELISA) of 0.045 OD450 nm.

In turn, B5 came in with an OD (PE binding ELISA) of 0.048 OD450 nm.

The molecule B6 yielded an OD (PE binding ELISA) of 0.046 OD450 nm. The molecule B7 had an OD (PE binding ELISA) of 0.046 OD450 nm. For B8 the value was 0.046 OD450 nm; for B9, 0.047 OD450 nm; for B10, 0.047 OD450 nm. B11 returned an OD (PE binding ELISA) of 0.045 OD450 nm. Then B12, with 0.046 OD450 nm; and B13, with 0.057 OD450 nm; and B14, with 0.046 OD450 nm. B15 showed an OD (PE binding ELISA) of 0.046 OD450 nm. B16 came in with an OD (PE binding ELISA) of 0.046 OD450 nm. As for B17, the OD (PE binding ELISA) came to 0.047 OD450 nm. Then B18, with 0.046 OD450 nm; and B19, with 0.047 OD450 nm; and B20, with 0.047 OD450 nm. Then B21, with 0.046 OD450 nm; and B22, with 0.045 OD450 nm; and B23, with 0.046 OD450 nm.
